From PMC3198426

Target: HAVI-Fluc-bJun (basic leucine zipper region of Jun, 225-334) (human)
Assay: pull-down; DLR-PD (dual luciferase reporter pull-down): both proteins co-expressed in HEK293; lysate in passive lysis buffer on Streptavidin MagneSphere Paramagnetic Particles in PBS, 30 m to 1 h, room temperature; two washes PBS with 1% Nonidet P 40, one with PBS; the biotinylated HAVI-tagged protein is held, Fluc and Rluc activity read on the beads; in some samples eYFP-MAVS or other activators (IRF3) or HCV NS3/4A (MAVS) co-expressed

HAVI-Fluc-bJun (basic leucine zipper region of Jun, 225-334) (human), sequence (P05412 whole entry): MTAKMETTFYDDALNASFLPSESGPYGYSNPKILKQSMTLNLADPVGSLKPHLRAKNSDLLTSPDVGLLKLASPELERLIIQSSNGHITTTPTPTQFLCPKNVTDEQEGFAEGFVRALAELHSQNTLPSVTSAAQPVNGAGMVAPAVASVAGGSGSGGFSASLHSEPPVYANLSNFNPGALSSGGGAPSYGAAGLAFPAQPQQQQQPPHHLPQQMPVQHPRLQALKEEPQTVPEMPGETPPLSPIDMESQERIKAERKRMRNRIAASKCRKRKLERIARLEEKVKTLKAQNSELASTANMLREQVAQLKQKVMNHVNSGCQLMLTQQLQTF
Rluc-bFos-Flag (basic leucine zipper region of Fos, 118-220), sequence (P01100 other isoform, or with tags, fused parts or gaps): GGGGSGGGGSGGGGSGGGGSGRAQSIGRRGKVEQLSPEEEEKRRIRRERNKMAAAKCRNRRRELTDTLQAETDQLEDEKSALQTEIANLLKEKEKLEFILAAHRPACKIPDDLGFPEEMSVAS

With “Rluc-bFos-Flag (basic leucine zipper region of Fos, 118-220) (from UniProt P01100 118-220) (domain or fragment)” the activity ratio of Rluc/Fluc on the beads (Rluc/Fluc activity ratio) was 1.7, the fold of the percentage of Rluc on beads over the three negative controls was over 80 fold and the molar ratio of Rluc-bFos to HAVI-Fluc-bJun binding to the beads was 0.1 molar ratio. For the same substance, the percentage of Rluc on beads to lysate was 4%.
